Data on 16 molecules can be found in patent US20220306751A1 (MYTHIC THERAPEUTICS, published 2022).

This assay concerns the target T1, CD123 Protein, His Tag, Acro Biosciences Cat. No. ILA-H52H6 (Homo sapiens (Human), UniProt P26951 19-305).
T1 construct: Bought protein; not shown: His tag
T1 sequence: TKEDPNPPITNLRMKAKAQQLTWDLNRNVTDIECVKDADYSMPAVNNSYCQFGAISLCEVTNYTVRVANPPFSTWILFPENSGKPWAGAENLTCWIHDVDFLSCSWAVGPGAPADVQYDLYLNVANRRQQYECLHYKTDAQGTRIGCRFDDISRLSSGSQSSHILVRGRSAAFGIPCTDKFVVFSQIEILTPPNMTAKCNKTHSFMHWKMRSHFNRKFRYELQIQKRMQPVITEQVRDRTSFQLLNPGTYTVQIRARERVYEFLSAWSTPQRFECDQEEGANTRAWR
Kind of assay: BLI, IgG on anti-human Fc sensor, 50 nM CD123, pH 7.4 and pH 5.4. An excerpt:
We selected IMGN632 (Heavy chain SEQ ID NO: 1, Light chain SEQ ID NO: 2) as a CD123-binding monoclonal antibody for pH engineering via histidine scanning. Briefly, CDRs in the heavy chain were identified using the methods described by Kabat et al (Kabat et al. (1992) Sequences of Proteins of Immunological Interest, DIANE publishing) and IMGT (Lefranc M P (1999) “The IMGT unique numbering for Immunoglobulins, T cell receptors and Ig-like domains” The Immunologist 7, 132-136), and for each CDR, residues falling under either or both Kabat and IMGT CDR definitions were called as CDR residues. To generate pH-dependent sequence variants, individual amino acid residues within the heavy chain CDRs were systematically substituted with a histidine, one at a time (MYT1252-MYT1292). In cases where the starting CDR residue was a histidine, it was mutated to an alanine. Antibody variants with only one histidine or alanine mutation in a heavy chain CDR were generated by co-transfection of Expi293 cells with a) one heavy chain sequence variant, and b) the corresponding starting ABPC light chain using methods known to the art. After allowing for four days of protein expression, cell culture supernatants were collected, quantified by SDS-PAGE analysis (FIG. 1), and the pH dependence of the variant was evaluated using biolayer interferometry (BLI) on an Octet RED 384 instrument. For constructs MYT1252, MYT1254-MYT1287, and MYT1289-1292, 104, of cell culture supernatant was diluted into 1904, of 1× PBST pH 7.4. For MYT1253 and MYT1288 254, and 504, of cell culture supernatant was diluted into 1754, and 1504, respectively. […] The resulting diluted supernatants were then captured on an anti-human Fc sensor (Forte Bio). A baseline was established using 1× PBST (50 mM Potassium Phosphate Buffer+150 mM NaCl+0.05% Tween 20) pH 7.4, and the sensor was associated with 50 nM of CD123 (CD123 Protein, His Tag, Acro Biosciences Cat. No. ILA-H52H6, Lot No. 1741d-89CF1-KB) in 1×PBST pH 7.4 for 120 sec to generate an association curve. In the dissociation phase, the antibody-antigen complex on the sensor was exposed to 1× PBST pH 7.4 for 300-600 sec. Baseline, association, and dissociation were repeated using 1×PBST pH 5.4 throughout in a separate condition.

B1: MYT1285 (antibody, V domains shown)
VH: QVQLVQSGAEVKKPGASVKVSCKASGYIFTSSIMHWVRQAPGQGLEWIGYIKPYNDGTKYNEKFKGRATLTSDRSTSTAYMELSSLRSEDTAVYYCAREGGNHYYDTMDYWGQGTLVTVSS
VL: DIQMTQSPSSLSASVGDRVTITCRASQDINSYLSWFQQKPGKAPKTLIYRVNRLVDGVPSRFSGSGSGNDYTLTISSLQPEDFATYYCLQYDAFPYTFGQGTKVEIK
notes: IgG
Take B1: the binding result is reported as “binds”.

B2: MYT1287 (antibody, V domains shown)
VH: QVQLVQSGAEVKKPGASVKVSCKASGYIFTSSIMHWVRQAPGQGLEWIGYIKPYNDGTKYNEKFKGRATLTSDRSTSTAYMELSSLRSEDTAVYYCAREGGNDYHDTMDYWGQGTLVTVSS
VL: DIQMTQSPSSLSASVGDRVTITCRASQDINSYLSWFQQKPGKAPKTLIYRVNRLVDGVPSRFSGSGSGNDYTLTISSLQPEDFATYYCLQYDAFPYTFGQGTKVEIK
notes: IgG
With B2, the binding result is reported as “binds”.

B3: MYT2759 (antibody, V domains shown)
VH: QVQLVQSGAEVKKPGASVKVSCKASGYIFTSSIMAWVRQAPGQGLEWIGYIKPYNDGTKYNEKFKGRATLTSDRSTSTAYMELSSLRSEDTAVYYCAREGGNDYYDTMHYWGQGTLVTVSS
VL: DIQMTQSPSSLSASVGDRVTITCRASQDINSYLSWFQQKPGKAPKTLIYRVNRLVDGVPSRFSGSGSGNDYTLTISSLQPEDFATYYCLQYDAFPYTFGQGTKVEIK
notes: IgG
For B3, the binding result is listed as “binds”.

B4: MYT2755 (antibody, V domains shown)
VH: QVQLVQSGAEVKKPGASVKVSCKASGHIFTSSIMHWVRQAPGQGLEWIGYIKPYNDGTKYNEKFKGRATLTSDRSTSTAYMELSSLRSEDTAVYYCAREGGNDYYDHMDYWGQGTLVTVSS
VL: DIQMTQSPSSLSASVGDRVTITCRASQDINSYLSWFQQKPGKAPKTLIYRVNRLVDGVPSRFSGSGSGNDYTLTISSLQPEDFATYYCLQYDAFPYTFGQGTKVEIK
notes: IgG
As for B4, the binding result is listed as “binds”.

B5: MYT2756 (antibody, V domains shown)
VH: QVQLVQSGAEVKKPGASVKVSCKASGHIFTSSIMHWVRQAPGQGLEWIGYIKPYNDGTKYNEKFKGRATLTSDRSTSTAYMELSSLRSEDTAVYYCAREGGNDYYDTMHYWGQGTLVTVSS
VL: DIQMTQSPSSLSASVGDRVTITCRASQDINSYLSWFQQKPGKAPKTLIYRVNRLVDGVPSRFSGSGSGNDYTLTISSLQPEDFATYYCLQYDAFPYTFGQGTKVEIK
notes: IgG
As to B5, the binding result is “binds”.

B6: MYT1288 (antibody, V domains shown)
VH: QVQLVQSGAEVKKPGASVKVSCKASGYIFTSSIMHWVRQAPGQGLEWIGYIKPYNDGTKYNEKFKGRATLTSDRSTSTAYMELSSLRSEDTAVYYCAREGGNDYYHTMDYWGQGTLVTVSS
VL: DIQMTQSPSSLSASVGDRVTITCRASQDINSYLSWFQQKPGKAPKTLIYRVNRLVDGVPSRFSGSGSGNDYTLTISSLQPEDFATYYCLQYDAFPYTFGQGTKVEIK
notes: IgG
For the molecule B6, the binding result is recorded as “binds”.

B7: MYT1292 (antibody, V domains shown)
VH: QVQLVQSGAEVKKPGASVKVSCKASGYIFTSSIMHWVRQAPGQGLEWIGYIKPYNDGTKYNEKFKGRATLTSDRSTSTAYMELSSLRSEDTAVYYCAREGGNDYYDTMDHWGQGTLVTVSS
VL: DIQMTQSPSSLSASVGDRVTITCRASQDINSYLSWFQQKPGKAPKTLIYRVNRLVDGVPSRFSGSGSGNDYTLTISSLQPEDFATYYCLQYDAFPYTFGQGTKVEIK
notes: IgG
Turning to B7, the binding result was “binds”.

B8: MYT1291 (antibody, V domains shown)
VH: QVQLVQSGAEVKKPGASVKVSCKASGYIFTSSIMHWVRQAPGQGLEWIGYIKPYNDGTKYNEKFKGRATLTSDRSTSTAYMELSSLRSEDTAVYYCAREGGNDYYDTMHYWGQGTLVTVSS
VL: DIQMTQSPSSLSASVGDRVTITCRASQDINSYLSWFQQKPGKAPKTLIYRVNRLVDGVPSRFSGSGSGNDYTLTISSLQPEDFATYYCLQYDAFPYTFGQGTKVEIK
notes: IgG
B8: the binding result was “binds”.

B9: MYT2757 (antibody, V domains shown)
VH: QVQLVQSGAEVKKPGASVKVSCKASGYIFTSSIMAWVRQAPGQGLEWIGYIKPYNDGTKYNEKFKGRATLTSDRSTSTAYMELSSLRSEDTAVYYCAREGGNDYHDTMDYWGQGTLVTVSS
VL: DIQMTQSPSSLSASVGDRVTITCRASQDINSYLSWFQQKPGKAPKTLIYRVNRLVDGVPSRFSGSGSGNDYTLTISSLQPEDFATYYCLQYDAFPYTFGQGTKVEIK
notes: IgG
As to B9, the binding result is “binds”.

B10: MYT2753 (antibody, V domains shown)
VH: QVQLVQSGAEVKKPGASVKVSCKASGHIFTSSIMAWVRQAPGQGLEWIGYIKPYNDGTKYNEKFKGRATLTSDRSTSTAYMELSSLRSEDTAVYYCAREGGNDYYDTMDYWGQGTLVTVSS
VL: DIQMTQSPSSLSASVGDRVTITCRASQDINSYLSWFQQKPGKAPKTLIYRVNRLVDGVPSRFSGSGSGNDYTLTISSLQPEDFATYYCLQYDAFPYTFGQGTKVEIK
notes: IgG
With B10, the binding result is given as “binds”.

B11: MYT2754 (antibody, V domains shown)
VH: QVQLVQSGAEVKKPGASVKVSCKASGHIFTSSIMHWVRQAPGQGLEWIGYIKPYNDGTKYNEKFKGRATLTSDRSTSTAYMELSSLRSEDTAVYYCAREGGNDYHDTMDYWGQGTLVTVSS
VL: DIQMTQSPSSLSASVGDRVTITCRASQDINSYLSWFQQKPGKAPKTLIYRVNRLVDGVPSRFSGSGSGNDYTLTISSLQPEDFATYYCLQYDAFPYTFGQGTKVEIK
notes: IgG
Turning to B11, the binding result is reported as “binds”.

B12: MYT2761 (antibody, V domains shown)
VH: QVQLVQSGAEVKKPGASVKVSCKASGYIFTSSIMHWVRQAPGQGLEWIGYIKPYNDGTKYNEKFKGRATLTSDRSTSTAYMELSSLRSEDTAVYYCAREGGNDYHDTMHYWGQGTLVTVSS
VL: DIQMTQSPSSLSASVGDRVTITCRASQDINSYLSWFQQKPGKAPKTLIYRVNRLVDGVPSRFSGSGSGNDYTLTISSLQPEDFATYYCLQYDAFPYTFGQGTKVEIK
notes: IgG
For the molecule B12, the binding result is given as “binds”.

B13: MYT2760 (antibody, V domains shown)
VH: QVQLVQSGAEVKKPGASVKVSCKASGYIFTSSIMHWVRQAPGQGLEWIGYIKPYNDGTKYNEKFKGRATLTSDRSTSTAYMELSSLRSEDTAVYYCAREGGNDYHDHMDYWGQGTLVTVSS
VL: DIQMTQSPSSLSASVGDRVTITCRASQDINSYLSWFQQKPGKAPKTLIYRVNRLVDGVPSRFSGSGSGNDYTLTISSLQPEDFATYYCLQYDAFPYTFGQGTKVEIK
notes: IgG
Regarding B13, the binding result was “binds”.

B14: MYT1289 (antibody, V domains shown)
VH: QVQLVQSGAEVKKPGASVKVSCKASGYIFTSSIMHWVRQAPGQGLEWIGYIKPYNDGTKYNEKFKGRATLTSDRSTSTAYMELSSLRSEDTAVYYCAREGGNDYYDHMDYWGQGTLVTVSS
VL: DIQMTQSPSSLSASVGDRVTITCRASQDINSYLSWFQQKPGKAPKTLIYRVNRLVDGVPSRFSGSGSGNDYTLTISSLQPEDFATYYCLQYDAFPYTFGQGTKVEIK
notes: IgG
As to B14, the binding result is reported as “binds”.

B15: MYT1286 (antibody, V domains shown)
VH: QVQLVQSGAEVKKPGASVKVSCKASGYIFTSSIMHWVRQAPGQGLEWIGYIKPYNDGTKYNEKFKGRATLTSDRSTSTAYMELSSLRSEDTAVYYCAREGGNDHYDTMDYWGQGTLVTVSS
VL: DIQMTQSPSSLSASVGDRVTITCRASQDINSYLSWFQQKPGKAPKTLIYRVNRLVDGVPSRFSGSGSGNDYTLTISSLQPEDFATYYCLQYDAFPYTFGQGTKVEIK
notes: IgG
In the case of B15, the binding result was “binds”.

B16: MYT1290 (antibody, V domains shown)
VH: QVQLVQSGAEVKKPGASVKVSCKASGYIFTSSIMHWVRQAPGQGLEWIGYIKPYNDGTKYNEKFKGRATLTSDRSTSTAYMELSSLRSEDTAVYYCAREGGNDYYDTHDYWGQGTLVTVSS
VL: DIQMTQSPSSLSASVGDRVTITCRASQDINSYLSWFQQKPGKAPKTLIYRVNRLVDGVPSRFSGSGSGNDYTLTISSLQPEDFATYYCLQYDAFPYTFGQGTKVEIK
notes: IgG
Take B16: the binding result is recorded as “binds”.
